Molecular target: Drosophila Deltex WWE2 domain (residues 26-261; Dx1A*) (Drosophila) (UniProt Q23985)
Assay: AUC

Chain of UniProt Q23985 (Q23985 26-261): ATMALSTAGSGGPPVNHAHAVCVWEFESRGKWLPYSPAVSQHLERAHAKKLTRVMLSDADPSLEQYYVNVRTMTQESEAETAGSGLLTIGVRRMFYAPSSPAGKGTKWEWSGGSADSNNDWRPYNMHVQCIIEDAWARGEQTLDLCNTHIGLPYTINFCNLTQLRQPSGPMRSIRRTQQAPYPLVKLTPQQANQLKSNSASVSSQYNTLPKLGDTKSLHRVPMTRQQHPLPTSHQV

weight-averaged sedimentation coefficient (sw) of a 45 μM 1:1 mixture: 3.51e-13 s
Substance: Drosophila Notch ANK domain (Nank1-7*) R2007A (from UniProt P07207 1901-2048) (domain or fragment)
